Measurements as given in patent US20190233528A1 (published 2019).

B1: P02B10 anti-CD70 scFv-Fc fusion (Fc fusion)
chain: EVQLLESGGGLVQPGGSLRLSCAASGFAFSNYAMSWVRQAPGKGLEWVSAIRGGGGSTYYADSVKGRFTISRDNSKNTLYLQMNSLRAEDTAVYYCARDFISGTWYPDYWGQGTLVTVSSGGGGSGGGGSGGGGSGGGGSELQSVLTQPPSASGTPGQRVTISCSGSSSNIGSNYVYWYQQLPGTAPKLLIYRNNQRPSGVPDRFSGSKSGTSASLAISGLRSEDEADYYCAAWDDSLSGVVFGGGTKLTVL
notes: scFv-Fc expressed in Expi293; not shown: part of the hinge and Fc from a modified human IgG2
B2: P07D03 anti-CD70 scFv-Fc fusion (Fc fusion)
chain: EVQLVQSGAEVKKPGESLKISCKGSGYRFTSYWIGWVRQMPGKGLEWMGSIYPDDSDTRYSPSFQGQVTISADKSISTAYLQWSSLKASDTAMYYCASSTVDYPGYSYFDYWGQGTLVTVSSGGGGSGGGGSGGGGSGGGGSELQSVLTQPPSASGTPGQRVTISCSGSRSNIGSNYVYWYQQLPGTAPKLLIYRNNQRPSGVPDRFSGSKSGTSASLAISGLRSEDEADYYCASWDGSLSAVVFGTGTKLTVL
notes: as for B1
B3: P08A02 anti-CD70 scFv-Fc fusion (Fc fusion)
chain: EVQLVQSGAEVKKPGESLKISCKGSGYTFTNYWIAWVRQMPGKGLEWMGIIYPDGSDTRYSPSFQGQVTISADKSISTAYLQWSSLKASDTAMYYCARDITSWYYGEPAFDIWGQGTLVTVSSGGGGSGGGGSGGGGSGGGGSELQSVLTQPPSASGTPGQRVTISCSGSSSNIGSNYVYWYQQLPGTAPKLLIYRNNQRPSGVPDRFSGSKSGTSASLAISGLRSEDEADYYCATWDDSLGSPVFGTGTKLTVL
notes: as for B1

These binders were tested against T1, recombinant human CD70 (AviTag, polyhistidine tag and chicken tenascin trimerization domain fused to the … (chicken; human, UniProt P10039 110-139, limits assumed) (assay: SPR (Biacore 8K, 37 C): CD70 captured via anti-AviTag antibody on C1 chip, scFv-Fc as analyte; 1:1 steady state affinity fit (SS KD)).
T1 construct: domain: trimerization domain; Expressed in Expi293, purified by IMAC and SEC; Copies 3 is inferred from the trimerization domain; not shown: AviTag; polyhistidine tag
T1 sequence: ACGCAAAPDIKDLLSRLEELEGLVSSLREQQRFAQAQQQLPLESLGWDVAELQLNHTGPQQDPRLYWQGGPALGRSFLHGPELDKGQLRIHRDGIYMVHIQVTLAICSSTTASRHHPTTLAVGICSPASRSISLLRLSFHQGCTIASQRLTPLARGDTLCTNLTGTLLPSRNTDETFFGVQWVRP
Experimental: The antibody binding kinetics were determined by surface plasmon resonance (Biacore 8K, GE Healthcare Bio-Sciences, Pittsburgh Pa.) at 37° C. in HBS-T+ (0.01 M HEPES pH 7.4, 0.15 M NaCl, 0.05% v/v Tween20, 1 mg/mL BSA). Recombinant human CD70 diluted in HBS-T+ was captured on a C1 chip immobilized with an anti-AviTag™ antibody. Purified anti-CD70 scFv-Fc fusions were serially diluted into HBS-T+, injected at 30 uL/min for 2-4 min, dissociation monitored for 10 min then the surface regenerated with 75 mM phosphoric acid between injections. Buffer cycles were collected for each anti-CD70 scFv-Fc fusion for double-referencing purposes (double-referencing as described in Myszka, D. G. Improving biosensor analysis. J. Mol. Recognit. 12, 279-284 (1999)). Kinetic association rates (kₒₙ) and dissociation rates (koff) were obtained simultaneously by fitting the double-referenced sensorgrams globally to a 1:1 Langmuir with mass transport model using Biacore 8K Evaluation Software (GE Healthcare Bio-Sciences, Pittsburgh Pa.) then used to calculate an equilibrium dissociation constant (KD) from the kinetic rate constants (KD=koff/kₒₙ). The data was fit to a 1:1 steady state affinity model using Biacore 8K Evaluation Software to determine a steady state equilibrium dissociation constant (SS KD) as needed.

Question: How did the Kd turn out when B1 was run?
Answer: Its Kd is 0.355 µM.

Question: Which Kd does the source give for B2 here?
Answer: The Kd was 1.07 µM.

Question: B3 was tested. Which Kd did it give?
Answer: Its Kd is 1.2 µM.
